Measurements from publication PMC10466926 (The Journal of Biological Chemistry, 2023).

Assays:
Settings in all cases: both partners purified
[1] = target: T1, IsdH NEAT3 (Staphylococcus aureus (Mu50 for the …, UniProt Q931P4)); experiment: SPR
T1 construct: also called NEAT3 domain (no linker)

[2] = target: T1, IsdH NEAT3; experiment: ITC
[3] = target: T2, IsdH linker-NEAT3 (Staphylococcus aureus Mu50, UniProt Q931P4); experiment: ITC
[4] = target: T1, IsdH NEAT3; experiment: SPR; remark: listed apart in the source
[5] = target: T2, IsdH linker-NEAT3; experiment: SPR
[6] = target: T3, IsdB linker-NEAT2 (Staphylococcus aureus Mu50 (by deposit …)); experiment: ITC
[7] = target: T3, IsdB linker-NEAT2; experiment: SPR
[8] = target: T2, IsdH linker-NEAT3; experiment: SPR; remark: listed apart in the source
[9] = target: T2, IsdH linker-NEAT3; experiment: ITC; remark: listed apart in the source
[10] = target: T2, IsdH linker-NEAT3; experiment: SPR; remark: listed apart in the source

| Binder | Kd [8] | koff [8] | kon [8] | dH [9] | stoichiometry N [9] | also measured |
| --- | --- | --- | --- | --- | --- | --- |
| VHH6 (VHH, also called WT VHH6; WT; source: E. coli BL21(DE3), pRA2 vector with PelB signal peptide, purified (Ni-NTA, SEC)) VHH: ELQLVESGGGLVQPGGSLSLSCEVSGFSFDDVDNFIIAWFRQAPGKEREGVSFLRKYDMSTYYAESVKGRFTISSDNARDTVYLQMTNLKPEDTAVYYCALDREGFVFEQGMDFWGKGTQVTVSS | – | – | – | – | – | Kd [1]: 638 nM; dH [2]: -49.8 kJ/mol; stoichiometry N [2]: 0.9 mol:mol; dH [3]: -71.5 kJ/mol; stoichiometry N [3]: 1.1 mol:mol; Kd [4]: 637 nM; koff [4]: 0.0235 s⁻¹; kon [4]: 37000 M⁻¹ s⁻¹; Kd [5]: 0.53 nM; koff [5]: 4.2e-05 s⁻¹; kon [5]: 81000 M⁻¹ s⁻¹; dH [6]: -101 kJ/mol; stoichiometry N [6]: 0.8 mol:mol; Kd [7]: 0.25 nM; koff [7]: 4e-05 s⁻¹; kon [7]: 160000 M⁻¹ s⁻¹ |
| VHH6 V107A (VHH, source: E. coli BL21(DE3), purified as the WT (Ni-NTA, SEC)) VHH: ELQLVESGGGLVQPGGSLSLSCEVSGFSFDDVDNFIIAWFRQAPGKEREGVSFLRKYDMSTYYAESVKGRFTISSDNARDTVYLQMTNLKPEDTAVYYCALDREGFAFEQGMDFWGKGTQVTVSS | 9.7 nM | 0.00105 s⁻¹ | 109000 M⁻¹ s⁻¹ | -66.5 kJ/mol | 0.96 mol:mol | – |
| VHH6 F108A (VHH, source: E. coli BL21(DE3), purified as the WT (Ni-NTA, SEC)) VHH: ELQLVESGGGLVQPGGSLSLSCEVSGFSFDDVDNFIIAWFRQAPGKEREGVSFLRKYDMSTYYAESVKGRFTISSDNARDTVYLQMTNLKPEDTAVYYCALDREGFVAEQGMDFWGKGTQVTVSS | 2.6 nM | 0.00049 s⁻¹ | 189000 M⁻¹ s⁻¹ | -80.8 kJ/mol | 0.97 mol:mol | – |
| VHH6 Y62A (VHH, source: E. coli BL21(DE3), purified as the WT (Ni-NTA, SEC)) VHH: ELQLVESGGGLVQPGGSLSLSCEVSGFSFDDVDNFIIAWFRQAPGKEREGVSFLRKYDMSTAYAESVKGRFTISSDNARDTVYLQMTNLKPEDTAVYYCALDREGFVFEQGMDFWGKGTQVTVSS | 45.4 nM | 0.00207 s⁻¹ | 46000 M⁻¹ s⁻¹ | -46.4 kJ/mol | 0.93 mol:mol | – |
| VHH6 Y57A (VHH, source: E. coli BL21(DE3), purified as the WT (Ni-NTA, SEC)) VHH: ELQLVESGGGLVQPGGSLSLSCEVSGFSFDDVDNFIIAWFRQAPGKEREGVSFLRKADMSTYYAESVKGRFTISSDNARDTVYLQMTNLKPEDTAVYYCALDREGFVFEQGMDFWGKGTQVTVSS | 114 nM | 0.0144 s⁻¹ | 126000 M⁻¹ s⁻¹ | -40.6 kJ/mol | 1.03 mol:mol | koff [10]: 144 s⁻¹ |
| VHH6 D33A (VHH, source: E. coli BL21(DE3), purified as the WT (Ni-NTA, SEC)) VHH: ELQLVESGGGLVQPGGSLSLSCEVSGFSFDDVANFIIAWFRQAPGKEREGVSFLRKYDMSTYYAESVKGRFTISSDNARDTVYLQMTNLKPEDTAVYYCALDREGFVFEQGMDFWGKGTQVTVSS | 2.08 nM | 0.00013 s⁻¹ | 62000 M⁻¹ s⁻¹ | -61.5 kJ/mol | 1.01 mol:mol | – |
| VHH6 F106A (VHH, source: E. coli BL21(DE3), purified as the WT (Ni-NTA, SEC)) VHH: ELQLVESGGGLVQPGGSLSLSCEVSGFSFDDVDNFIIAWFRQAPGKEREGVSFLRKYDMSTYYAESVKGRFTISSDNARDTVYLQMTNLKPEDTAVYYCALDREGAVFEQGMDFWGKGTQVTVSS | 3.1 nM | 0.00031 s⁻¹ | 99000 M⁻¹ s⁻¹ | -69.5 kJ/mol | 1.01 mol:mol | – |
| VHH6 R55A (VHH, source: E. coli BL21(DE3), purified as the WT (Ni-NTA, SEC)) VHH: ELQLVESGGGLVQPGGSLSLSCEVSGFSFDDVDNFIIAWFRQAPGKEREGVSFLAKYDMSTYYAESVKGRFTISSDNARDTVYLQMTNLKPEDTAVYYCALDREGFVFEQGMDFWGKGTQVTVSS | 25.4 nM | 0.00855 s⁻¹ | 284000 M⁻¹ s⁻¹ | -66.5 kJ/mol | 0.94 mol:mol | – |
| VHH35 (VHH, also called VHH number 35; hit clone 35; source: E. coli BL21(DE3), pRA2 vector with PelB signal peptide, purified (Ni-NTA, SEC)) VHH: QLQLVESGGGLVQPGGSLSLSCEVSGFSFDDVDNFIIAWFRQAPGKEREGVSFLRKYDMSTYYAESVKGRFTISSDNARDTVYLQMTNLKPEDTAVYYCALDREGFVFEQGMDFWGKGTQVTVSS | – | – | – | – | – | dH [2]: -71.1 kJ/mol; stoichiometry N [2]: 1.02 mol:mol; dH [3]: -66.9 kJ/mol; stoichiometry N [3]: 0.98 mol:mol; Kd [4]: 237 nM; koff [4]: 0.00918 s⁻¹; kon [4]: 39000 M⁻¹ s⁻¹; Kd [5]: 0.53 nM; koff [5]: 3.5e-05 s⁻¹; kon [5]: 66000 M⁻¹ s⁻¹ |
| VHH6 E104A (VHH, source: E. coli BL21(DE3), purified as the WT (Ni-NTA, SEC)) VHH: ELQLVESGGGLVQPGGSLSLSCEVSGFSFDDVDNFIIAWFRQAPGKEREGVSFLRKYDMSTYYAESVKGRFTISSDNARDTVYLQMTNLKPEDTAVYYCALDRAGFVFEQGMDFWGKGTQVTVSS | 6.4 nM | 0.00142 s⁻¹ | 151000 M⁻¹ s⁻¹ | -56.9 kJ/mol | 0.99 mol:mol | – |
